Changes are numbered by the printed parent chain. Blank lines part the entries; values can stand above or below the binder they belong to.
Legend:
[1] = molecular target: T1, kappa-sCD40(1-94)-Flag mutant fragment B (multiple mutations of residues 13-15) (human, UniProt P25942 21-114); assay: ELISA, kappa-sCD40-Flag captured by anti-Flag, anti-human IgG Fc-HRP detection
T1 construct: also called B (13-15); not shown: The N-terminal human kappa light chain and the C-terminal Flag tag
T1 chain: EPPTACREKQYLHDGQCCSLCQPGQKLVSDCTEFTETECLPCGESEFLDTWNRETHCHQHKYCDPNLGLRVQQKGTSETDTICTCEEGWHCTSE
Description: (§1) 1 μg/ml of purified kappa-sCD40-Flag fusion proteins or CHO cell supernatants containing the sCD40 fusion proteins were captured to microtiter plates that were pre-coated with 5 μg/ml mouse anti-Flag antibody (Sigma) in PBS and blocked with 5% bovine serum albumin in PBS. Following incubation with the CD40 antibody, the microplates were washed with PBS/Tween, and incubated with a goat anti-human IgG Fc polyclonal reagent conjugated to horseradish peroxidase. After washing, the plates were developed with HRP substrate, and analyzed at OD 450-650 using a microtiter plate reader. An ELISA with a goat anti-human IgG Fab2-HRP to measure kappa chain binding was carried out in parallel to validate the sCD40 fusion protein expression from different transfections.

[2] = molecular target: T2, kappa-sCD40(1-94)-Flag mutant fragment C (multiple mutations of residues 25, 26, 28 and 30) (human, UniProt P25942 21-114); assay: as above
T2 construct: also called C (25, 26, 28, 30); not shown: The N-terminal human kappa light chain and the C-terminal Flag tag
T2 chain: T1 chain with H13I, D14N, G15S, Q25S, K26R, V28T, D30H
Description: as §1

[3] = molecular target: T1, kappa-sCD40(1-94)-Flag mutant fragment …; assay: ELISA, kappa-sCD40-Flag (~2 ug/ml) captured by anti-Flag, anti-human IgG Fc-HRP detection
Description: as §1, with “containing” for “1 μg/ml of purified kappa-sCD40-Flag fusion proteins or CHO cell supernatants containing”

[4] = molecular target: T2, kappa-sCD40(1-94)-Flag mutant fragment …; assay: as above
Description: as §1, with “containing” for “1 μg/ml of purified kappa-sCD40-Flag fusion proteins or CHO cell supernatants containing”

[5] = molecular target: T3, human CD40 expressed on the cell surface (Raji cells, Ramos cells, human PBMC B cells, luciferase reporter … (human, UniProt P25942 21-277)); assay: flow cytometry on Raji and Ramos cells
T3 construct: also called CD40 on cells expressing human CD40
Description: Antibodies from Example 1 were tested for binding to human cell lines expressing human CD40 on their surface. […] After 20 minutes, the cells were washed with PBS containing 0.1% BSA and 0.05% NaN3 (PBA) and the bound antibodies were detected by incubating the cells with a PE labeled goat anti-human IgG Fc-specific probe. The excess probe was washed from the cells with PBA and the cell associated fluorescence was determined by analysis using a FACSCanto II™ instrument (BD Biosciences, NJ, USA) according to the manufacturer's directions.

T3 sequence (P25942 21-277 limits assumed): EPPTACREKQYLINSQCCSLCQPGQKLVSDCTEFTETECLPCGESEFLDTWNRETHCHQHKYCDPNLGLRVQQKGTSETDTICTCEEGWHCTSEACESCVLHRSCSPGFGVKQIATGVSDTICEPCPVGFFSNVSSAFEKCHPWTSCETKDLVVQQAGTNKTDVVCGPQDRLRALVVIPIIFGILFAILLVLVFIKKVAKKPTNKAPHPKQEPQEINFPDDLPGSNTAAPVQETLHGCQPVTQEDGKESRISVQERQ

B2: anti-CD40 human monoclonal antibody 6H6 (antibody, human IgG2, V domains shown)
VH: QVQLVESGGGVVQPGRSLRFSCAASGFTLSSYGMHWVRQAPGKGLEWVAVIWDDGSNKYYADSVKGRFTISRDNSKNTLYLQMNSLRAEDTAVYYCARAGGSGRYYNYFDYWGQGTLVTVSS
VL: EIVMTQSPATLSVSPGERATLSCRASQSVRSNLAWYQQKPGQAPRLLIYGASTRATGIPARFSGSGSGTDFTLTISSLQSEDFAVYYCQQHNNWLTFGGGTKVEIK
notes: Human IgG2
binding result [5]: binds

B4: anti-CD40 human monoclonal antibody 3B6 (antibody, human IgG2, V domains shown)
VH: EVQLLESGGGLVQPGGSLRLSCAASGFTFSSYAMSWVRQAPGKGLEWVSGITGTGGSTYYADSVKGRFTISRDNSKNTLYVQMNSLRAEDTAVYYCAKRAGGSFYYYYGMDVWGQGTTVTVSS
VL: DIVMTQSPLSLPVTPGEPASISCRSSQSLLHSTGYNYLDWYLQKPGQSPQLLIYLGSNRASGVPDRFNGSGSGTDFTLKISRVEAEDFGVYYCMQALQTPWTFGHGTKVEIK
notes: Human IgG2
binding result [5]: binds

Continued, values first:

Average OD [1]: 2.03 OD 450-650 | Average OD [2]: 1.49 OD 450-650 | OD [3]: 2.38 OD 450-650 | OD [4]: 2.02 OD 450-650
B1: anti-CD40 human monoclonal antibody 3C3 (antibody, human IgG2, kappa, V domains shown)
VH: QVQLVESGGGVVQPGRSLRLSCAGSGFIFSRYGMYWVRQAPGKGLEWVAVIWYDGSYKYYADSVKGRFTISRDNSKNTLYLQMNSLRAEDTAVYYCARESPWYYFDYWGQGTLVTVSS
VL: DIQMTQSPSSLSASVGDRVTITCRASQGISNYLAWYQQKPGKVPKLLIYAASTLQSGVPSRFSGSGSGTDFTLTISSLQPEDVATYYCQKYKSAPFTFGPGTKVDIKR
notes: Full chains with leader removed; human IgG2 constant domain with C-terminal lysine removed; also called anti-CD40 mAb 3C3; CD40 antibody 3C3

binding result [5]: binds
B3: anti-CD40 human monoclonal antibody 1B4 (antibody, human IgG2, V domains shown)
VH: EVQLLESGGGLVQPGGSLRLSCAASGFTFSSYAMTWVRQVPGKGLEWVSGITGSGANTFYTDSVKGRFTISRDNSNNSLYLQMNSLRADDTAVYYCAKRNGGSYYYYYGMDVWGQGTTVTVSS
VL: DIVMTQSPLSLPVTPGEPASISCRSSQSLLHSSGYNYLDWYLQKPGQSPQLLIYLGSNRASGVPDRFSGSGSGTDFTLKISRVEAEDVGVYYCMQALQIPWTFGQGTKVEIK
notes: Human IgG2
